Measurements reported in article PMC5327651 (Virology, 2016).
Changes are numbered by the printed parent chain.

B1: WT rhTRIM5α CC-L2 peptide (residues 132-296) with an added C-terminal cysteine, fluorescently labelled (domain or fragment, rhesus macaque)
chain: LMEEVAQEYHVKLQTALEMLRQKQQEAEKLEADIREEKASWKIQIDYDKTNVSADFEQLREILDWEESNELQNLEKEEEDILKSLTKSETEMVQQTQYMRELISELEHRLQGSMMDLLQGVDGIIKRIENMTLKKPKTFHKNQRRVFRAPDLKGMLDMFRELTDAC
modifications: Alexa Fluor 488 C5-maleimide or Alexa Fluor 594 C5-maleimide on the added C-terminal cysteine
B2: RRV275-277AAA rhTRIM5α CC-L2 peptide (residues 132-296) with an added C-terminal cysteine, fluorescently labelled (domain or fragment, rhesus macaque)
chain: B1 chain with R144A, R145A, V146A
modifications: Alexa Fluor 488 C5-maleimide or Alexa Fluor 594 C5-maleimide on the added C-terminal cysteine
B3: HKN271-273AAA rhTRIM5α CC-L2 peptide (residues 132-296) with an added C-terminal cysteine, fluorescently labelled (domain or fragment, rhesus macaque)
chain: B1 chain with H140A, K141A, N142A
modifications: Alexa Fluor 488 C5-maleimide or Alexa Fluor 594 C5-maleimide on the added C-terminal cysteine

What was measured:
cross-linking = target: the molecule itself; assay: cross-linking
FRET or BRET = target: the molecule itself; assay: FRET or BRET

| Protein | stoichiometry N (cross-linking) | binding result (FRET or BRET) |
| --- | --- | --- |
| B1 | 2 | – |
| B2 | – | binds |
| B3 | – | binds |
